Results on one variant are retold here after article PMC6677536 (2019).

B1: Full-length Nxf2, 3xFLAG-tagged [D. melanogaster] / Full-length Panx, HA-tagged [D. melanogaster] (parent complex)
chain 1: MPNQMRVLDFGDGSVPIQLDYPDSKIFSKCSSYGDRVPGTHWNEITVHHKGRLEYSPNPEQIILDALYQAIDGADFFPVFYQRGKNMDTMLVRNCKAAIDKLFKQRLSINLKGGASIPISIQLGVAQYQRHQITPTFHIARVVTRLMKQLIQRDGVDGLLNLDNFGSHPEFKNLVVSLGNPSILMNVCQVIHNDDNERFRLNGFILSNNRIRDIRPLTLLANVDYALLDLRGNKIKSAERLCRALEQFRARELLLENNPIVKISNFPANIKSLESNFELVDGKPFNMLHKIFSPLDVEIDLEVDGARIDTNNMWKLPEFENSQHWHAFMIPDPSHEFNQEVFFDFFFIRLDPTLSNFYPCYYKYINTEHVFLVRNCFDQIAHLVNNCNLEMTIPTGDRIFRYYLRMNVSTVKQHHVDPEECIQKAVSQCYVAQNRMLNLERFHSRECLKDVMVSLSSPKILTYVLSVASRKFMTTCSEIRLCHNKVLVLDGAHVLGMMGCLRAVDLSHNWVQDLSSIHSLGNLPLKSLVLHGNKLCRNYRLPSEYVRAVKEVFPQLTTLDGVDLQTNPGQSLQKNFLCDTGAYELVGAFLENYLREFENDEFRHNLYKYYSENSIFTLTCNYNVVQNHQTPKILQRLSKYNRHARNLRNKDYSKASDGVFFGCTYIVEILLQLPRVTHDFHSLQTDVMHYNGKGAVIYVAGLLRDEPPSTRNGHGSKTDIGGVLLGFSRQFVVTFDEANLGLGKRARRLKIANERLHITNPSKTAIRNAFSVNFPDPSERQAEEDSLDVKDHKLLLFQEVTGLISTWVTSIVEEADWDFERALKLFIQKNADHEIPDLAFA
chain 2: MEAPMKLEVKVENYVECGINEDEATPLREGTGETPPHAFACGVPMSGSGWCSDPEDGNLVHHSATPTSDEHLQPSLDTIEPKMEPKIKEDADNAMLDSLLADPFENNSPATLQTPADVKPNAMLDSVEQGSRSCELLPSEFSKRENLDDMDLFSLKAAKTLVPDEQQSFPQNDTPIDDPEAADLIAQKREILKMLEMTAENRKVKHKKKKHKKERSHRSNKHQEESRKRNHSNSSSDEGADDKNQFDCDYRGHKKYKNRRGSASSQNESSKERKLRDTELDYVPVRPDEHFIRPIKFSNLIERRPPQVEFNTVNLSKADKRSLAVARAELVLEQIQQKANKEEPPEFHMVDTICKLPVNESFRNQDCFENPSPICNNMNVVYKFNSTPGTRIDLSKWGLETVPEATKRLLRLLGIDVARLKELQSTVKPSQRILKLKKEQLEQGLAPTEEQETATLYKNAATQTERRTATRDAGTQVRLESKLNGAFWQNPHFDPMNLTQHQSNVMLALQEIYQTLPSATMAVKLSRALAPALAIIKGRQP

Variants of B1 are the subject of this test. Description: FLAG-tag co-immunoprecipitation, western blot quantification; lysates of transfected S2 cells; read off a plot. On the technique in general: In western blotting, separated proteins are transferred to a membrane and probed.
For the variant chain 1 R755G, the log10 ratio was ~-0.45 log10 coIP index [arbitrary unit].
